The values that follow are results of earlier work, collected in article PMC10539808.

The series concerns the target Lys66 (UniProt position 148, FTKKMKENAKK). Particulars: not stated (quoted literature value; no ligand mentioned).

Regarding “Staphylococcal nuclease (SNase), Delta+PHS/V66K variant (Staphylococcus aureus; P117G;H124L;S128A;del44-49;G50F;V51N;V66K)”, the pKa was 5.7 and ∼ 5.6.

Broadly, the pKa is the pH at which an ionisable group is half protonated.
